Assay results as given in publication PMC7061307 (Molecular cell, 2019).
Blank lines part the entries; values can stand above or below the binder they belong to.

Key:
ChIP-qPCR ± TMG = conditions: glycan lost; control: TBP3X-WT cells
[1] = IP and anti-phosphothreonine blot; conditions: glycan lost; control: TBP3X-WT cells
[2] = TBP:BTAF1 interaction under LG, HG, TMG, Ac4SGlcNAc; conditions: glycan lost; control: TBP3X-WT cells
[3] = molecular target: 3XFLAG-TBP T114A (p3XFLAG-cmv10 construct) (human, UniProt P20226 1-339, T114A); assay: co-IP

B1: TATA-box binding protein (TBP): TBP3X-T114A (protein)
parent chain: MDQNNSLPPYAQGLASPQGAMTPGIPIFSPMMPYGTGLTPQPIQNTNSLSILEEQQRQQQQQQQQQQQQQQQQQQQQQQQQQQQQQQQQQQQQQQAVAAAAVQQSTSQQATQGTSGQAPQLFHSQTLTTAPLPGTTPLYPSPMTPMTPITPATPASESSGIVPQLQNIVSTVNLGCKLDLKTIALRARNAEYNPKRFAAVIMRIREPRTTALIFSSGKMVCTGAKSEEQSRLAARKYARVVQKLGFPAKFLDFKIQNMVGSCDVKFPIRLEGLVLTHQQFSSYEPELFPGLIYRMIKPRIVLLIFVSGKVVLTGAKVRAEIYEAFENIYPILKGFRKTT
other: TMG-induced rise in promoter occupancy (ChIP-qPCR ± TMG): abolishes | other: TBP phosphorylation [1]: no change | other: response of BTAF1 binding to glucose/TMG/Ac4SGlcNAc [2]: abolishes

fold amount of BTAF1 co-IPed against TBP^WT [3]: ~3 fold
B2: B-TFIID TATA-Box Binding Protein Associated Factor 1 (BTAF1), endogenous human (natural protein, UniProt O14981 1-1849, looked up)
chain: MAVSRLDRLFILLDTGTTPVTRKAAAQQLGEVVKLHPHELNNLLSKVLIYLRSANWDTRIAAGQAVEAIVKNVPEWNPVPRTRQEPTSESSMEDSPTTERLNFDRFDICRLLQHGASLLGSAGAEFEVQDEKSGEVDPKERIARQRKLLQKKLGLNMGEAIGMSTEELFNDEDLDYTPTSASFVNKQPTLQAAELIDSEFRAGMSNRQKNKAKRMAKLFAKQRSRDAVETNEKSNDSTDGEPEEKRRKIANVVINQSANDSKVLIDNIPDSSSLIEETNEWPLESFCEELCNDLFNPSWEVRHGAGTGLREILKAHGKSGGKMGDSTLEEMIQQHQEWLEDLVIRLLCVFALDRFGDFVSDEVVAPVRETCAQTLGVVLKHMNETGVHKTVDVLLKLLTQEQWEVRHGGLLGIKYALAVRQDVINTLLPKVLTRIIEGLQDLDDDVRAVAAASLVPVVESLVYLQTQKVPFIINTLWDALLELDDLTASTNSIMTLLSSLLTYPQVQQCSIQQSLTVLVPRVWPFLHHTISSVRRAALETLFTLLSTQDQNSSSWLIPILPDMLRHIFQFCVLESSQEILDLIHKVWMELLSKASVQYVVAAACPWMGAWLCLMMQPSHLPIDLNMLLEVKARAKEKTGGKVRQGQSQNKEVLQEYIAGADTIMEDPATRDFVVMRARMMAAKLLGALCCCICDPGVNVVTQEIKPAESLGQLLLFHLNSKSALQRISVALVICEWAALQKECKAVTLAVQPRLLDILSEHLYYDEIAVPFTRMQNECKQLISSLADVHIEVGNRVNNNVLTIDQASDLVTTVFNEATSSFDLNPQVLQQLDSKRQQVQMTVTETNQEWQVLQLRVHTFAACAVVSLQQLPEKLNPIIKPLMETIKKEENTLVQNYAAQCIAKLLQQCTTRTPCPNSKIIKNLCSSLCVDPYLTPCVTCPVPTQSGQENSKGSTSEKDGMHHTVTKHRGIITLYRHQKAAFAITSRRGPTPKAVKAQIADLPAGSSGNILVELDEAQKPYLVQRRGAEFALTTIVKHFGGEMAVKLPHLWDAMVGPLRNTIDINNFDGKSLLDKGDSPAQELVNSLQVFETAAASMDSELHPLLVQHLPHLYMCLQYPSTAVRHMAARCVGVMSKIATMETMNIFLEKVLPWLGAIDDSVKQEGAIEALACVMEQLDVGIVPYIVLLVVPVLGRMSDQTDSVRFMATQCFATLIRLMPLEAGIPDPPNMSAELIQLKAKERHFLEQLLDGKKLENYKIPVPINAELRKYQQDGVNWLAFLNKYKLHGILCDDMGLGKTLQSICILAGDHCHRAQEYARSKLAECMPLPSLVVCPPTLTGHWVDEVGKFCSREYLNPLHYTGPPTERIRLQHQVKRHNLIVASYDVVRNDIDFFRNIKFNYCILDEGHVIKNGKTKLSKAVKQLTANYRIILSGTPIQNNVLELWSLFDFLMPGFLGTERQFAARYGKPILASRDARSSSREQEAGVLAMDALHRQVLPFLLRRMKEDVLQDLPPKIIQDYYCTLSPLQVQLYEDFAKSRAKCDVDETVSSATLSEETEKPKLKATGHVFQALQYLRKLCNHPALVLTPQHPEFKTTAEKLAVQNSSLHDIQHAPKLSALKQLLLDCGLGNGSTSESGTESVVAQHRILIFCQLKSMLDIVEHDLLKPHLPSVTYLRLDGSIPPGQRHSIVSRFNNDPSIDVLLLTTHVGGLGLNLTGADTVVFVEHDWNPMRDLQAMDRAHRIGQKRVVNVYRLITRGTLEEKIMGLQKFKMNIANTVISQENSSLQSMGTDQLLDLFTLDKDGKAEKADTSTSGKASMKSILENLSDLWDQEQYDSEYSLENFMHSLK
